Test results from patent publication US20210139548A1 (published 2021).
One block for each binder: values may come before it. *1 amine or outer side, *2 acyl side, *3 side chain or, on linkers, in order; H or OH if unused. Side-chain parts run from the residue outwards. The star is where a group is joined. C18 diacid = O=C(O)CCCCCCCCCCCCCCCCC(=O)*; γGlu = O=C(O)[C@H](CCC(=O)[*:2])N[*:1]; Isovaleryl = CC(C)CC(=O)*; AEEA = NCCOCCOCC(=O)O

Biological target: T1, human neuropeptide Y2 receptor (human, UniProt P49146 1-381)
T1 construct: whole, on cells; also called hNPY2 receptor; hNPY2-R
T1 sequence (looked up): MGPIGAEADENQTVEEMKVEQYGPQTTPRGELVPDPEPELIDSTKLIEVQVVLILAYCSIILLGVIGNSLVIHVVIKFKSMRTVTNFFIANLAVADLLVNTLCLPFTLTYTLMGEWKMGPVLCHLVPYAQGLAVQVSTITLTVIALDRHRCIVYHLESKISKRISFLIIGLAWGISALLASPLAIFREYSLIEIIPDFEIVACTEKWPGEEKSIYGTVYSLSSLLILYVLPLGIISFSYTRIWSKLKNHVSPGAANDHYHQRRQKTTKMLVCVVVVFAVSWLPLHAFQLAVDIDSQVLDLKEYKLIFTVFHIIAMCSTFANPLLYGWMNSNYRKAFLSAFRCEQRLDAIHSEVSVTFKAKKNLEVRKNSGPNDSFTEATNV
Assay: radioligand competition (125I-PYY(1-36)), hNPY2R membranes
In short: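 Commercial human Y2 receptor membranes (0.5 μg protein/well) were incubated with peptide for 2 h at room temperature in 50 mM HEPES, 5 mM MgCl₂, 1 mM CaCl₂, pH 7.4, with 0.2% ovalbumin. Bound radioligand was separated on PEI-soaked GF/C filters and counted by scintillation, and IC₅₀ came from nonlinear sigmoidal regression.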

Ki: 5.69 nM
B1: Compound 199 (peptide)
peptide: Isovaleryl-APEK([AEEA-AEEA-γGlu-C18 diacid])PEEDAEPEETQRYYVSLRHYYNWLTRQRY-NH2
SMILES: CC(C)CC(=O)N[C@@H](C)C(=O)N1CCC[C@H]1C(=O)N[C@@H](CCC(=O)O)C(=O)N[C@@H](CCCCNC(=O)COCCOCCNC(=O)COCCOCCNC(=O)CC[C@H](NC(=O)CCCCCCCCCCCCCCCCC(=O)O)C(=O)O)C(=O)N1CCC[C@H]1C(=O)N[C@@H](CCC(=O)O)C(=O)N[C@@H](CCC(=O)O)C(=O)N[C@@H](CC(=O)O)C(=O)N[C@@H](C)C(=O)N[C@@H](CCC(=O)O)C(=O)N1CCC[C@H]1C(=O)N[C@@H](CCC(=O)O)C(=O)N[C@@H](CCC(=O)O)C(=O)N[C@H](C(=O)N[C@@H](CCC(N)=O)C(=O)N[C@@H](CCCNC(=N)N)C(=O)N[C@@H](Cc1ccc(O)cc1)C(=O)N[C@@H](Cc1ccc(O)cc1)C(=O)N[C@H](C(=O)N[C@@H](CO)C(=O)N[C@@H](CC(C)C)C(=O)N[C@@H](CCCNC(=N)N)C(=O)N[C@@H](Cc1c[nH]cn1)C(=O)N[C@@H](Cc1ccc(O)cc1)C(=O)N[C@@H](Cc1ccc(O)cc1)C(=O)N[C@@H](CC(N)=O)C(=O)N[C@@H](Cc1c[nH]c2ccccc12)C(=O)N[C@@H](CC(C)C)C(=O)N[C@H](C(=O)N[C@@H](CCCNC(=N)N)C(=O)N[C@@H](CCC(N)=O)C(=O)N[C@@H](CCCNC(=N)N)C(=O)N[C@@H](Cc1ccc(O)cc1)C(N)=O)[C@@H](C)O)C(C)C)[C@@H](C)O

Ki: 3.8 nM
B2: Compound 208 (peptide)
peptide: Isovaleryl-APEK([AEEA-AEEA-γGlu-C18 diacid])PEEDASEEETQRYYVSLRHYYNWLTRQRY-NH2
SMILES: CC(C)CC(=O)N[C@@H](C)C(=O)N1CCC[C@H]1C(=O)N[C@@H](CCC(=O)O)C(=O)N[C@@H](CCCCNC(=O)COCCOCCNC(=O)COCCOCCNC(=O)CC[C@H](NC(=O)CCCCCCCCCCCCCCCCC(=O)O)C(=O)O)C(=O)N1CCC[C@H]1C(=O)N[C@@H](CCC(=O)O)C(=O)N[C@@H](CCC(=O)O)C(=O)N[C@@H](CC(=O)O)C(=O)N[C@@H](C)C(=O)N[C@@H](CO)C(=O)N[C@@H](CCC(=O)O)C(=O)N[C@@H](CCC(=O)O)C(=O)N[C@@H](CCC(=O)O)C(=O)N[C@H](C(=O)N[C@@H](CCC(N)=O)C(=O)N[C@@H](CCCNC(=N)N)C(=O)N[C@@H](Cc1ccc(O)cc1)C(=O)N[C@@H](Cc1ccc(O)cc1)C(=O)N[C@H](C(=O)N[C@@H](CO)C(=O)N[C@@H](CC(C)C)C(=O)N[C@@H](CCCNC(=N)N)C(=O)N[C@@H](Cc1c[nH]cn1)C(=O)N[C@@H](Cc1ccc(O)cc1)C(=O)N[C@@H](Cc1ccc(O)cc1)C(=O)N[C@@H](CC(N)=O)C(=O)N[C@@H](Cc1c[nH]c2ccccc12)C(=O)N[C@@H](CC(C)C)C(=O)N[C@H](C(=O)N[C@@H](CCCNC(=N)N)C(=O)N[C@@H](CCC(N)=O)C(=O)N[C@@H](CCCNC(=N)N)C(=O)N[C@@H](Cc1ccc(O)cc1)C(N)=O)[C@@H](C)O)C(C)C)[C@@H](C)O

Ki: 1.9 nM
B3: Compound 205 (peptide)
peptide: Isovaleryl-APEK([AEEA-AEEA-γGlu-C18 diacid])PEEEASPEELQKYYVSLRHYYNWLTRQRY-NH2
SMILES: CC(C)CC(=O)N[C@@H](C)C(=O)N1CCC[C@H]1C(=O)N[C@@H](CCC(=O)O)C(=O)N[C@@H](CCCCNC(=O)COCCOCCNC(=O)COCCOCCNC(=O)CC[C@H](NC(=O)CCCCCCCCCCCCCCCCC(=O)O)C(=O)O)C(=O)N1CCC[C@H]1C(=O)N[C@@H](CCC(=O)O)C(=O)N[C@@H](CCC(=O)O)C(=O)N[C@@H](CCC(=O)O)C(=O)N[C@@H](C)C(=O)N[C@@H](CO)C(=O)N1CCC[C@H]1C(=O)N[C@@H](CCC(=O)O)C(=O)N[C@@H](CCC(=O)O)C(=O)N[C@@H](CC(C)C)C(=O)N[C@@H](CCC(N)=O)C(=O)N[C@@H](CCCCN)C(=O)N[C@@H](Cc1ccc(O)cc1)C(=O)N[C@@H](Cc1ccc(O)cc1)C(=O)N[C@H](C(=O)N[C@@H](CO)C(=O)N[C@@H](CC(C)C)C(=O)N[C@@H](CCCNC(=N)N)C(=O)N[C@@H](Cc1c[nH]cn1)C(=O)N[C@@H](Cc1ccc(O)cc1)C(=O)N[C@@H](Cc1ccc(O)cc1)C(=O)N[C@@H](CC(N)=O)C(=O)N[C@@H](Cc1c[nH]c2ccccc12)C(=O)N[C@@H](CC(C)C)C(=O)N[C@H](C(=O)N[C@@H](CCCNC(=N)N)C(=O)N[C@@H](CCC(N)=O)C(=O)N[C@@H](CCCNC(=N)N)C(=O)N[C@@H](Cc1ccc(O)cc1)C(N)=O)[C@@H](C)O)C(C)C

Ki: 1.07 nM
B4: Compound 207 (peptide)
peptide: Isovaleryl-APAK([AEEA-AEEA-γGlu-C18 diacid])PEADAEPEELQRYYVSLRHYYNWLTRQRY-NH2
SMILES: CC(C)CC(=O)N[C@@H](C)C(=O)N1CCC[C@H]1C(=O)N[C@@H](C)C(=O)N[C@@H](CCCCNC(=O)COCCOCCNC(=O)COCCOCCNC(=O)CC[C@H](NC(=O)CCCCCCCCCCCCCCCCC(=O)O)C(=O)O)C(=O)N1CCC[C@H]1C(=O)N[C@@H](CCC(=O)O)C(=O)N[C@@H](C)C(=O)N[C@@H](CC(=O)O)C(=O)N[C@@H](C)C(=O)N[C@@H](CCC(=O)O)C(=O)N1CCC[C@H]1C(=O)N[C@@H](CCC(=O)O)C(=O)N[C@@H](CCC(=O)O)C(=O)N[C@@H](CC(C)C)C(=O)N[C@@H](CCC(N)=O)C(=O)N[C@@H](CCCNC(=N)N)C(=O)N[C@@H](Cc1ccc(O)cc1)C(=O)N[C@@H](Cc1ccc(O)cc1)C(=O)N[C@H](C(=O)N[C@@H](CO)C(=O)N[C@@H](CC(C)C)C(=O)N[C@@H](CCCNC(=N)N)C(=O)N[C@@H](Cc1c[nH]cn1)C(=O)N[C@@H](Cc1ccc(O)cc1)C(=O)N[C@@H](Cc1ccc(O)cc1)C(=O)N[C@@H](CC(N)=O)C(=O)N[C@@H](Cc1c[nH]c2ccccc12)C(=O)N[C@@H](CC(C)C)C(=O)N[C@H](C(=O)N[C@@H](CCCNC(=N)N)C(=O)N[C@@H](CCC(N)=O)C(=O)N[C@@H](CCCNC(=N)N)C(=O)N[C@@H](Cc1ccc(O)cc1)C(N)=O)[C@@H](C)O)C(C)C

Ki: 3.35 nM
B5: Compound 204 (peptide)
peptide: Isovaleryl-APEK([AEEA-AEEA-γGlu-C18 diacid])PEEEASPEEVQRYYVSLRHYYNWLTRQRY-NH2
SMILES: CC(C)CC(=O)N[C@@H](C)C(=O)N1CCC[C@H]1C(=O)N[C@@H](CCC(=O)O)C(=O)N[C@@H](CCCCNC(=O)COCCOCCNC(=O)COCCOCCNC(=O)CC[C@H](NC(=O)CCCCCCCCCCCCCCCCC(=O)O)C(=O)O)C(=O)N1CCC[C@H]1C(=O)N[C@@H](CCC(=O)O)C(=O)N[C@@H](CCC(=O)O)C(=O)N[C@@H](CCC(=O)O)C(=O)N[C@@H](C)C(=O)N[C@@H](CO)C(=O)N1CCC[C@H]1C(=O)N[C@@H](CCC(=O)O)C(=O)N[C@@H](CCC(=O)O)C(=O)N[C@H](C(=O)N[C@@H](CCC(N)=O)C(=O)N[C@@H](CCCNC(=N)N)C(=O)N[C@@H](Cc1ccc(O)cc1)C(=O)N[C@@H](Cc1ccc(O)cc1)C(=O)N[C@H](C(=O)N[C@@H](CO)C(=O)N[C@@H](CC(C)C)C(=O)N[C@@H](CCCNC(=N)N)C(=O)N[C@@H](Cc1c[nH]cn1)C(=O)N[C@@H](Cc1ccc(O)cc1)C(=O)N[C@@H](Cc1ccc(O)cc1)C(=O)N[C@@H](CC(N)=O)C(=O)N[C@@H](Cc1c[nH]c2ccccc12)C(=O)N[C@@H](CC(C)C)C(=O)N[C@H](C(=O)N[C@@H](CCCNC(=N)N)C(=O)N[C@@H](CCC(N)=O)C(=O)N[C@@H](CCCNC(=N)N)C(=O)N[C@@H](Cc1ccc(O)cc1)C(N)=O)[C@@H](C)O)C(C)C)C(C)C

Ki: 0.6 nM
B6: Compound 202 (peptide)
peptide: Isovaleryl-APEK([AEEA-AEEA-γGlu-C18 diacid])PEEDAAPEELQKYYVSLRHYYNWLTRQRY-NH2
SMILES: CC(C)CC(=O)N[C@@H](C)C(=O)N1CCC[C@H]1C(=O)N[C@@H](CCC(=O)O)C(=O)N[C@@H](CCCCNC(=O)COCCOCCNC(=O)COCCOCCNC(=O)CC[C@H](NC(=O)CCCCCCCCCCCCCCCCC(=O)O)C(=O)O)C(=O)N1CCC[C@H]1C(=O)N[C@@H](CCC(=O)O)C(=O)N[C@@H](CCC(=O)O)C(=O)N[C@@H](CC(=O)O)C(=O)N[C@@H](C)C(=O)N[C@@H](C)C(=O)N1CCC[C@H]1C(=O)N[C@@H](CCC(=O)O)C(=O)N[C@@H](CCC(=O)O)C(=O)N[C@@H](CC(C)C)C(=O)N[C@@H](CCC(N)=O)C(=O)N[C@@H](CCCCN)C(=O)N[C@@H](Cc1ccc(O)cc1)C(=O)N[C@@H](Cc1ccc(O)cc1)C(=O)N[C@H](C(=O)N[C@@H](CO)C(=O)N[C@@H](CC(C)C)C(=O)N[C@@H](CCCNC(=N)N)C(=O)N[C@@H](Cc1c[nH]cn1)C(=O)N[C@@H](Cc1ccc(O)cc1)C(=O)N[C@@H](Cc1ccc(O)cc1)C(=O)N[C@@H](CC(N)=O)C(=O)N[C@@H](Cc1c[nH]c2ccccc12)C(=O)N[C@@H](CC(C)C)C(=O)N[C@H](C(=O)N[C@@H](CCCNC(=N)N)C(=O)N[C@@H](CCC(N)=O)C(=O)N[C@@H](CCCNC(=N)N)C(=O)N[C@@H](Cc1ccc(O)cc1)C(N)=O)[C@@H](C)O)C(C)C
